Results: IntAct's records for PubMed 18171471

Target: fak1_chick PTK2 (UniProt Q00944)
Sequence (Q00944 whole entry): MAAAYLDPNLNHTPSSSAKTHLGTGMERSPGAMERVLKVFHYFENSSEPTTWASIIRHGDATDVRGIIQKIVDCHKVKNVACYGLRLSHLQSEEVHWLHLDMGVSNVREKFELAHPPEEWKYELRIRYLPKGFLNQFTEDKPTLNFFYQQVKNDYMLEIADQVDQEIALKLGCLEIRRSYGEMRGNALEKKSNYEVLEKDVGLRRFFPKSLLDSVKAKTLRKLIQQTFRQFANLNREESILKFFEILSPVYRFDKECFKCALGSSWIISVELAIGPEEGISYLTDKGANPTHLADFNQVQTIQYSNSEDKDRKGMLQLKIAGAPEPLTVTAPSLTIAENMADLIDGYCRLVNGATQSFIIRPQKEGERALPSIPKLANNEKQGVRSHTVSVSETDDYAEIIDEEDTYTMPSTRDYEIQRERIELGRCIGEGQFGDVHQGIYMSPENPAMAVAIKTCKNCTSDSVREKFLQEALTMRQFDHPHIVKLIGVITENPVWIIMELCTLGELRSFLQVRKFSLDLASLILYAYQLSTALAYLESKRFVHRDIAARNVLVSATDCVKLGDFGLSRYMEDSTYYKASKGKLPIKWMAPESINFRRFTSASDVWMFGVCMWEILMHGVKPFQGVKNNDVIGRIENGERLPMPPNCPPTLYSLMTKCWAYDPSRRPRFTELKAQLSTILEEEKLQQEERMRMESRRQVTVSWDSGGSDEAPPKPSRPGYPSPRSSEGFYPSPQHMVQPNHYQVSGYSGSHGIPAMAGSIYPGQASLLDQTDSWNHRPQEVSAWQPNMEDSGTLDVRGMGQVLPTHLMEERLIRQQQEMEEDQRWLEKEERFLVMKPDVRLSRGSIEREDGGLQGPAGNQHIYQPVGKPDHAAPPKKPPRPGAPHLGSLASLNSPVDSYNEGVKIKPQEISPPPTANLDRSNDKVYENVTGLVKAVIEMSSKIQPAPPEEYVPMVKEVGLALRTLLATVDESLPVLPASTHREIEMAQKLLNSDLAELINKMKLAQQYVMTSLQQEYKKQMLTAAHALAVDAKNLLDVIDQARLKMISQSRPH

Sequence of Paxillin (Gallus gallus (Chicken)), P49024 D146A (P49024 whole entry D146A): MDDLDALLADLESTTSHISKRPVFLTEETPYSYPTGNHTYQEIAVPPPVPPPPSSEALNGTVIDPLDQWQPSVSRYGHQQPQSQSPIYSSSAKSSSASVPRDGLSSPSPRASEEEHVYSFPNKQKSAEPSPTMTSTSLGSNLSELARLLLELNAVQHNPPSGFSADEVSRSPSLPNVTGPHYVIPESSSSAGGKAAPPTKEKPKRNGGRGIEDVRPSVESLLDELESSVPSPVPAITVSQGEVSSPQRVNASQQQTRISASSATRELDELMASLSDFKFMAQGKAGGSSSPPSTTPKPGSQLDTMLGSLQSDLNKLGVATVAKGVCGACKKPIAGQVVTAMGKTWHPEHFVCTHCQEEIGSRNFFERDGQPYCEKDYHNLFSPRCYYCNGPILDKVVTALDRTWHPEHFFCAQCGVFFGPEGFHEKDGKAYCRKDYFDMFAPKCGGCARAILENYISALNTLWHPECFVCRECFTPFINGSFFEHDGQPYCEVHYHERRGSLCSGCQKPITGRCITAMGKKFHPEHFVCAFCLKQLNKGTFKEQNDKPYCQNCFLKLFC
Sequence of Paxillin (Gallus gallus (Chicken)), P49024 D146A;D268A (P49024 whole entry D146A/D268A): as the sequence (P49024 whole entry D146A) above, with D268A counted along it

Substance | effect of a mutation on the interaction
Paxillin (Gallus gallus (Chicken)), P49024 D146A;D268A | disrupting interaction
Paxillin (Gallus gallus (Chicken)), P49024 D146A | decreasing interaction
